According to patent publication US20250051449A1 (SURFACE ONCOLOGY, published 2025):

T1: CD112R-hIgG4 fusion protein (human, UniProt Q6DKI7 41-171, limits assumed)
T1 construct: also called human CD112R-hIgG4; not shown: human IgG4 portion (hIgG4)
T1 sequence (looked up): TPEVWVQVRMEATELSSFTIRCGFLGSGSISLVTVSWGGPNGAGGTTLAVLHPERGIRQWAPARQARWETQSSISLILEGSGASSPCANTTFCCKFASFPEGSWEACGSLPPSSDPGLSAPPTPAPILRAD


Tests used:
[1] = target: T1, CD112R-hIgG4 fusion protein; assay: blocking ELISA: coated CD112R-hIgG4, antibody, then biotinylated CD112 Fc
Method: The ability of anti-CD112R antibodies to block human CD112R was also evaluated by ELISA. Briefly, 96 well Nunc Maxisorp plates were coated with 1 μg/mL of a CD112R-hIgG4 fusion protein in PBS overnight at 4° C. […] After blocking, plates were washed 6× with PBST. Next, 100 μl of anti-CD112R antibodies in PBS+1% BSA was added at a final starting concentration of 10 μg/mL, with 4-fold serial dilutions. Plates were incubated at room temperature for 1.5 hours. Next plates were washed 6× with PBST and then incubated with 1 μg/ml CD112 Fc protein (R&D Systems, Cat #9317-N2-050) that was biotinylated with a sulfo-NHS biotinylation kit (Thermo Fisher, Cat #21925) in 100 μl of PBS+1% BSA for 1 hour at room temperature. Plates were then washed 6× with PBST and subsequently incubated with streptavidin-HRP (Biolegend, Cat #405210) diluted in PBS+1% BSA according to the manufacturer recommendation for 1 hour at room temperature. Following this incubation, plates were then washed 6× with PBST and developed with TMB substrate (Life Technologies, Cat #002023). The reaction was stopped with an equal volume of stop solution (Life Technologies, Cat #SS04). Absorbance at 450 nm (O.D. 450) was measured on a SpectraMax plate reader.
Results are depicted in FIG. 2B and Table 2. […] Percent inhibition was calculated as [100−((test sample O.D. 450/Max 0.D. 450)*100%)] Max O.D. 450 was defined as absorbance at 450 nm in the absence of antibody.

[2] = target: T2, mouse CD112R overexpressed on 293T cells (mouse); assay: flow cytometry, 293T cells overexpressing mouse CD112R
T2 construct: whole, on cells; also called 293T.mCD112R; 293T-mouse CD112R
Method: The ability of anti-CD112R antibodies to bind to mouse CD112R was evaluated on cells overexpressing mouse CD112R. 0.8×10⁵ 293T cells (ATCC CRL-3216) that were engineered to overexpress mouse CD112R (293T.mCD112R) were added to each well of a 96-well V bottom plate and stained with either anti-CD112R antibodies or an IgG1 isotype control at a starting concentration of 10 μg/mL, with 3-fold serial dilutions for 30 minutes at 4° C. Cells were washed twice with PBS+2% FCS and resuspended with Alexa Fluor® 647 anti-human IgG Fc antibody (Biolegend, Cat #409320) diluted 1:100 in PBS+2% FCS and incubated at 4° C. for 20 minutes. Cells were subsequently washed twice and resuspended in PBS+2% FCS. Cellular data was acquired using a LSRFortessa X-20 (BD Biosciences) and analyzed with FlowJo software (Tree Star).
Results are depicted in FIG. 17 and Table 11. Quantitation of antibody binding to 293T.mCD112R cells was assessed by the geometric mean fluorescent intensity (gMFI) of the Alexa Fluor® 647 signal.

Binder	CD112 blocking max inhibition ELISA (%) [1]	gMFI (fold increase over isotype) [2]
Antibody 46 (antibody, V domains shown, in the mouse tumor studies it was used as mouse IgG2a; also called antibody clone number 46; clone 46) VH: EVQLVESGGGLVQPGRSLRLSCTASGFTFGDYAMSWFRQAPGKGLEWVGFIGSKAYGGTTEYTASVKGRFTISRDGSKSIAYLQMNSLKTEDTAVYYCARGPRRYTYGMDVWGQGTTVTVSS VL: DIQMTQSPSSLSASVGDRVTITCRASQSISSYLNWYQQKPGKAPKLLIYAASSLQSGVPSRFSGSGSGTDFTLTISSLQPEDFATYYCQQSSTPLTFGGGTKVEIK	97.6%	74.8 fold increase over isotype
Antibody 32 (antibody, V domains shown, Purified as IgG; compared with an IgG1 isotype control and detected with anti-human IgG Fc; also called antibody clone number 32; parent clone 32) VH: QVQLVQSGAEVKKPGSSVKVSCKASGGTFSSYAISWVRQAPGQGLEWMGGIIPISGTANYAQKFQGRVTITADESTSTAYMELSSLRSEDTAVYYCARDTGRGYTRHFWFDPWGQGTLVTVSS VL: DIQMTQSPSSLSASVGDRVTITCRASQSISSYLNWYQQKPGKAPKLLIYAASSLQSGVPSRFSGSGSGTDFTLTISSLQPEDFATYYCQQSDILYTFGGGTKVEIK	75.1%	14.9 fold increase over isotype
Antibody 33 (antibody, V domains shown, Purified as IgG; compared with an IgG1 isotype control and detected with anti-human IgG Fc; also called antibody clone number 33; clone 33) VH: QVQLVQSGAEVKKPGSSVKVSCKASGGTFGNYAISWVRQAPGQGLEWMGGIIPIPGIANYAQKFQGRVTITADESTSTAYMELSSLRSEDTAVYYCARDTGRGYTRHFWFDPWGQGTLVTVSS VL: DIQMTQSPSSLSASVGDRVTITCRASQSISSYLNWYQQKPGKAPKLLIYAASSLQSGVPSRFSGSGSGTDFTLTISSLQPEDFATYYCQQSDILYTFGGGTKVEIK	78.8%	73.3 fold increase over isotype
Antibody 34 (antibody, V domains shown, Purified as IgG; compared with an IgG1 isotype control and detected with anti-human IgG Fc; also called antibody clone number 34; clone 34) VH: QVQLVQSGAEVKKPGSSVKVSCKASGGTFSSAAISWVRQAPGQGLEWMGGIFPISGHANYAQKFQGRVTITADESTSTAYMELSSLRSEDTAVYYCARDTGRGYTRHFWFDPWGQGTLVTVSS VL: DIQMTQSPSSLSASVGDRVTITCRASQSISSYLNWYQQKPGKAPKLLIYAASSLQSGVPSRFSGSGSGTDFTLTISSLQPEDFATYYCQQSDILYTFGGGTKVEIK	80%	72.2 fold increase over isotype

Continued, values first:

CD112 blocking max inhibition ELISA (%) [1]	gMFI (fold increase over isotype) [2]	Binder
86.2%	76.3 fold increase over isotype	Antibody 36 (antibody, V domains shown, Purified as IgG; compared with an IgG1 isotype control and detected with anti-human IgG Fc; also called antibody clone number 36; clone 36) VH: QVQLVQSGAEVKKPGSSVKVSCKASGGTFATYAISWVRQAPGQGLEWMGGIFPLSGTANYAQKFQGRVTITADESTSTAYMELSSLRSEDTAVYYCARDTGRGYTRHFWFDPWGQGTLVTVSS VL: DIQMTQSPSSLSASVGDRVTITCRASQSISSYLNWYQQKPGKAPKLLIYAASSLQSGVPSRFSGSGSGTDFTLTISSLQPEDFATYYCQQSDILYTFGGGTKVEIK
81.7%	55.6 fold increase over isotype	Antibody 35 (antibody, V domains shown, Purified as IgG; compared with an IgG1 isotype control and detected with anti-human IgG Fc; also called antibody clone number 35; clone 35) VH: QVQLVQSGAEVKKPGSSVKVSCKASGGTFSSAAISWVRQAPGQGLEWMGNIIPIVGIANYAQKFQGRVTITADESTSTAYMELSSLRSEDTAVYYCARDTGRGYTRHFWFDPWGQGTLVTVSS VL: DIQMTQSPSSLSASVGDRVTITCRASQSISSYLNWYQQKPGKAPKLLIYAASSLQSGVPSRFSGSGSGTDFTLTISSLQPEDFATYYCQQSDILYTFGGGTKVEIK
97.3%	79.4 fold increase over isotype	Antibody 58 (antibody, V domains shown, Purified as IgG; compared with an IgG1 isotype control and detected with anti-human IgG Fc; also called antibody clone number 58; clone 58) VH: EVQLVESGGGLVQPGRSLRLSCTASGFTFGDYAMSWFRQAPGKGLEWVGFIGSKFYGGETEYTASVKGRFTISRDGSKSIAYLQMNSLKTEDTAVYYCARGPRRYTYGMDVWGQGTTVTVSS VL: DIQMTQSPSSLSASVGDRVTITCRASQSISSYLNWYQQKPGKAPKLLIYAASSLQSGVPSRFSGSGSGTDFTLTISSLQPEDFATYYCQQSSTPLTFGGGTKVEIK
